Molecular target: T1, recombinant CaM6 (untagged) (UniProt Q03509 1-149)
T1 construct: calmodulin 6 (CaM6), 'a conserved CaM isoform'; recombinant, untagged; also called Ca2+/CaM; source: E. coli NiCO (DE3), purified (heat step, phenyl-Sepharose)
Assay: native gel or EMSA; CaM (240 pmol) with different amounts of LL22 or pLL22 peptide in the ratios indicated, 20 μl, 60 min, then native PAGE
Conditions: both partners purified

Binder: LRQFVRYSRLKQFALRALASTL (source: synthetic peptide (LifeTein)) [LL22 peptide (CPK28 autoinhibitory junction)]
- stoichiometry N: 1
